Measured values published in the RNAGym collection of RNA variant scans (doi:10.7554/elife.80360).

B1: Hairpin Ribozyme (parent)
chain: GUCCUCUUUCACGUGCGCGUGAAAGAGAGAAGUGAACCAGAGAAACACACGUUGUGGUAUAUUACCUGGUA

Variants of: B1
Test: self-cleavage, relative activity (ratio to wild type); higher = more cleavage; co-transcriptional
G57C A59U gave a self-cleavage of 0.159.
Work on G57C A59G yielded a self-cleavage of 0.244.
U60A C65G showed a self-cleavage of 0.254.
U60A C65U gave a self-cleavage of 0.301.
Work on U55C U58A yielded a self-cleavage of 0.257.
With U63G A64U the self-cleavage was 0.157.
U63G A64C gave a self-cleavage of 0.191.
In the case of U63A A71C, the self-cleavage is reported as 0.287.
A59U U60A showed a self-cleavage of 0.195.
With G56U G68C the self-cleavage was 0.157.
Variant G56U G68A has a self-cleavage of 0.183.
Work on A64G U70G yielded a self-cleavage of 0.47.
Work on A64G U70A yielded a self-cleavage of 0.597.
U58G A59G showed a self-cleavage of 0.143.
With G57U A59C the self-cleavage was 0.188.
G57U A59G gave a self-cleavage of 0.231.
In the case of G57C G69C, the self-cleavage is reported as 0.142.
G57C G69A showed a self-cleavage of 0.135.
Variant A59C G68C has a self-cleavage of 0.227.
In the case of U63A G69A, the self-cleavage is reported as 0.153.
A61G U67A gave a self-cleavage of 0.328.
Variant U63G U67A has a self-cleavage of 0.159.
Variant A61G C66G has a self-cleavage of 0.329.
Work on U55G A64G yielded a self-cleavage of 0.266.
A59U C66A showed a self-cleavage of 0.128.
With A59U C66G the self-cleavage was 0.185.
In the case of G57C A64U, the self-cleavage is reported as 0.095.
With U62C C66U the self-cleavage was 0.189.
With U62C C66G the self-cleavage was 0.213.
For U62C C65A, the self-cleavage was 0.212.
Variant U62C C65U has a self-cleavage of 0.162.
For G57U A64U, the self-cleavage was 0.173.
G57U A64G gave a self-cleavage of 0.202.
G57U A64C showed a self-cleavage of 0.139.
Work on G57C A61C yielded a self-cleavage of 0.236.
In the case of G57C U63A, the self-cleavage is reported as 0.165.
In the case of A59G G69C, the self-cleavage is reported as 0.161.
With G57U C65G the self-cleavage was 0.134.
In the case of U58G A64U, the self-cleavage is reported as 0.218.
For U62C G69A, the self-cleavage was 0.112.
In the case of A61U U67C, the self-cleavage is reported as 0.175.
With A61U U67G the self-cleavage was 0.129.
In the case of A61U U67A, the self-cleavage is reported as 0.178.
For U55G A61G, the self-cleavage was 0.0963.
In the case of A59U U63C, the self-cleavage is reported as 0.12.
Work on G57A A59C yielded a self-cleavage of 0.142.
Work on G57A A59G yielded a self-cleavage of 0.171.
For A59G A71C, the self-cleavage was 0.444.
A61C G69C showed a self-cleavage of 0.0992.
For A59G, the self-cleavage was 0.17.
A59U showed a self-cleavage of 0.157.
In the case of A59C, the self-cleavage is reported as 0.171.
With A64C U67G the self-cleavage was 0.147.
U60C G69U gave a self-cleavage of 0.0645.
For G56C A61C, the self-cleavage was 0.109.
A64G G68U showed a self-cleavage of 0.19.
Variant A64G G68C has a self-cleavage of 0.122.
With U58C U63C the self-cleavage was 0.178.
With G57C the self-cleavage was 0.166.
Variant G57U has a self-cleavage of 0.273.
For G57A, the self-cleavage was 0.183.
A59G G68C showed a self-cleavage of 0.144.
For U58A A64G, the self-cleavage was 0.247.
A64G G69U showed a self-cleavage of 0.116.
A59C G69C gave a self-cleavage of 0.216.
Work on U60G U62C yielded a self-cleavage of 0.244.
In the case of U60G U62G, the self-cleavage is reported as 0.222.
In the case of A61G A64C, the self-cleavage is reported as 0.109.
G57C U67G showed a self-cleavage of 0.123.
Work on G57C U67C yielded a self-cleavage of 0.114.
With A59C U62A the self-cleavage was 0.159.
Variant G56A U70G has a self-cleavage of 0.254.
For U62G C66G, the self-cleavage was 0.0965.
Work on A59U A64U yielded a self-cleavage of 0.191.
U58C C65U gave a self-cleavage of 0.55.
In the case of U55G C66G, the self-cleavage is reported as 0.251.
For A59C U63A, the self-cleavage was 0.169.
G57U U63A gave a self-cleavage of 0.146.
A61G C65G gave a self-cleavage of 0.303.
With A61G C65A the self-cleavage was 0.159.
U58C G68C showed a self-cleavage of 0.243.
U60A G68A showed a self-cleavage of 0.298.
G57C C65U showed a self-cleavage of 0.192.
U60G C66G gave a self-cleavage of 0.261.
In the case of G56A A71U, the self-cleavage is reported as 0.142.
U58A U62A gave a self-cleavage of 0.0926.
Work on A61U U70G yielded a self-cleavage of 0.261.
With A61U U70C the self-cleavage was 0.231.
In the case of U58A U60A, the self-cleavage is reported as 0.509.
For U58A U60G, the self-cleavage was 0.646.
In the case of U60G U67G, the self-cleavage is reported as 0.202.
U55C U63G showed a self-cleavage of 0.119.
U55C U63A showed a self-cleavage of 0.18.
U58G U63C showed a self-cleavage of 0.271.
Work on U58G G69C yielded a self-cleavage of 0.142.
Work on U58G G69A yielded a self-cleavage of 0.292.
Work on U58G U70C yielded a self-cleavage of 0.84.
U55C U67G showed a self-cleavage of 0.113.
U55C U67A gave a self-cleavage of 0.177.
With U58G A71C the self-cleavage was 1.07.
For U58G A71G, the self-cleavage was 0.935.
In the case of U58G A71U, the self-cleavage is reported as 0.455.
U55C G68A showed a self-cleavage of 0.166.
With U55G the self-cleavage was 0.297.
A59G C65A gave a self-cleavage of 0.155.
A59G C65G showed a self-cleavage of 0.247.
Variant U55G U60A has a self-cleavage of 0.0917.
For U55G U60G, the self-cleavage was 0.185.
For U62C A71G, the self-cleavage was 0.236.
Work on U62C A71U yielded a self-cleavage of 0.277.
A59U U67G gave a self-cleavage of 0.143.
U63G A71U gave a self-cleavage of 0.117.
With G56U A71G the self-cleavage was 0.127.
Work on G56U C66U yielded a self-cleavage of 0.0775.
In the case of G56U C66G, the self-cleavage is reported as 0.22.
U55C C65G showed a self-cleavage of 0.194.
U58A C65A showed a self-cleavage of 0.503.
U58A C65U gave a self-cleavage of 0.203.
G56C A71G gave a self-cleavage of 0.28.
Work on U63A U70C yielded a self-cleavage of 0.36.
G56A C65U gave a self-cleavage of 0.104.
In the case of A61C U62C, the self-cleavage is reported as 0.166.
In the case of U62A U70G, the self-cleavage is reported as 0.16.
With G56U G69U the self-cleavage was 0.207.
With G56U G69C the self-cleavage was 0.124.
G56U G69A gave a self-cleavage of 0.114.
In the case of U60A U62A, the self-cleavage is reported as 0.0542.
Work on U60A U62C yielded a self-cleavage of 0.373.
Variant U60A U62G has a self-cleavage of 0.0972.
With A64U G69A the self-cleavage was 0.115.
For G57U U67C, the self-cleavage was 0.116.
Variant G57U U67A has a self-cleavage of 0.166.
U55G A59U gave a self-cleavage of 0.156.
With G57A G69A the self-cleavage was 0.122.
For A61C C65G, the self-cleavage was 0.189.
Work on A59U G68A yielded a self-cleavage of 0.231.
A59U G68U gave a self-cleavage of 0.188.
With G57U U70G the self-cleavage was 0.225.
With A59G U62A the self-cleavage was 0.144.
Variant A61U C66G has a self-cleavage of 0.233.
In the case of U55G U67G, the self-cleavage is reported as 0.233.
U58C A59U showed a self-cleavage of 0.192.
For G57U U60A, the self-cleavage was 0.114.
In the case of G57U U60C, the self-cleavage is reported as 0.246.
In the case of U60G G68C, the self-cleavage is reported as 0.127.
U58A A71U gave a self-cleavage of 0.391.
U58A A71C showed a self-cleavage of 1.19.
For A59U G69A, the self-cleavage was 0.182.
For A59U G69C, the self-cleavage was 0.323.
In the case of A59U G69U, the self-cleavage is reported as 0.191.
Work on A61U A71U yielded a self-cleavage of 0.171.
With U62G A71G the self-cleavage was 0.143.
For U62G A71C, the self-cleavage was 0.281.
Work on U60A A64U yielded a self-cleavage of 0.0988.
In the case of U60A A64C, the self-cleavage is reported as 0.206.
For U60A A64G, the self-cleavage was 0.353.
Variant A59C A61U has a self-cleavage of 0.284.
U60C U62C gave a self-cleavage of 0.569.
With U60C U62A the self-cleavage was 0.253.
Work on U58C C66G yielded a self-cleavage of 0.154.
For U55G U58C, the self-cleavage was 0.651.
For U63C C66A, the self-cleavage was 0.23.
Variant A64U C66A has a self-cleavage of 0.156.
Variant A64U C66G has a self-cleavage of 0.069.
In the case of A64U A71U, the self-cleavage is reported as 0.305.
G56U U70C showed a self-cleavage of 0.271.
G56U U70A showed a self-cleavage of 0.145.
